# Target: β-amyloid1-42 (UniProt P05067)
# Experiment: cell-based or functional assay
ACh rel % Inh @ 100 µM [%],Inh ACh rel IC50 [µM],Substance
54,< 10,(Ac)FYEC (peptide)
62,< 10,(Ac)YECC-amide (peptide)

# — patent publication US20030092613A1, “Alpha7 nicotinic receptor peptides as ligands for beta amyloid peptides” (priority 2000, published 2003)
